The text below walks through data of patent publication USRE49099 (Bayer, dated 2022).

Changes are numbered by the printed parent chain. A value given as a limit tells only on which side of the number the result lay.

The target in test [1] is T1, human activated protein C (human, UniProt P04070 43-197; P04070 212-461).
T1 construct: also called human aPC; human APC
The test can be described thus: SPR (Biacore), 1:1 binding model.

The target of test [2] is T2, cyno activated protein C (cyno (monkey)).
T2 construct: also called cyno aPC; cyno APC
The experiment in a line: SPR (Biacore), 1:1 binding model.

For test [3], the target named is T1, human activated protein C. The experiment in a line: ELISA, coated antigen.
The target of test [4] is T3, human Protein C (human, UniProt P04070 43-461).
T3 construct: Zymogen used as negative control in the ELISA; also called human PC; hPC
The test can be described thus: ELISA, coated antigen.

Test [5] has as its target T2, cyno activated protein C. The test can be described thus: ELISA, coated antigen.
The target of test [6] is T1, human activated protein C. The experiment in a line: SPR (Biacore).

B1: Hu1573-12 (antibody, V domains shown)
VH: EVQLVESGGGLVQPGGSLRLSCAASGFTFSNYYLNWVRQAPGKGLEWVADIRLKSNNYEKHYAESVKGRFTISRDDSKNSVYLQMNSLKTEDTAVYYCIREGDYFDYWGQGTTVTVSS
VL: DIVMTQTPLSLSVTPGQPASISCRASESVDSFGATFMHWYLQKPGQPPQLLIYLASNLESGVPDRFSGSGSGTDFTLKISRVEAEDVGVYYCQQNNEDPYTFGQGTKLEIKR
notes: Humanized IgG, human gamma 1 / kappa constant regions by vectors pCP-hCg1 and pCP-hck; also called H1573VH.1E + H1573Vk.2
Regarding B1, in test [1], binding was characterised by a dissociation constant (Kd) of 6.03 nM, the koff was 0.00844 s⁻¹ and the on-rate constant (kon) turned out to be 1.4e+06 M⁻¹ s⁻¹. Further, in test [2], the Kd was 16.1 nM, the koff is 0.0054 s⁻¹ and the on-rate (kon) is 337000 M⁻¹ s⁻¹. Moreover, the 50% effective concentration (EC50) in test [3] was 0.339 nM. Besides, the binding result in test [4] is reported as “no binding (tested: 20 nM)”. The same molecule showed an EC50 in test [5] of 0.642 nM.

B2: Hu1573-7 (antibody, V domains shown)
VH: B1 VH with V81L
VL: B1 VL with M4L
notes: Humanized IgG, human gamma 1 / kappa constant regions by vectors pCP-hCg1 and pCP-hck; also called H1573VH.1C + H1573Vk.2A
B2: the Kd in test [1] came out at 6.33 nM; in test [2] it was 18.5 nM. Besides, the koff in test [1] was determined as 0.00857 s⁻¹; in test [2], 0.00471 s⁻¹. In addition, the kon in test [1] was determined as 1.36e+06 M⁻¹ s⁻¹; in test [2], 255000 M⁻¹ s⁻¹. Moreover, the figures for the EC50 in test [3] and in test [5] were 0.445 nM and 0.853 nM, respectively. For the same molecule, the binding result in test [4] was “no binding (tested: 20 nM)”.

B3: Hu1573-6 (antibody, V domains shown)
VH: B1 VH with V81L
VL: B1 VL
notes: Humanized IgG, human gamma 1 / kappa constant regions by vectors pCP-hCg1 and pCP-hck; also called H1573VH.1C + H1573Vk.2
As to B3, in test [1], the Kd amounted to 5.94 nM, the koff was determined as 0.00848 s⁻¹ and the kon was found to be 1.43e+06 M⁻¹ s⁻¹. For the same molecule, in test [2], the Kd amounted to 11.3 nM, the koff turned out to be 0.00707 s⁻¹ and the kon was found to be 627000 M⁻¹ s⁻¹. Besides, a half-maximal response in test [3] (EC50) required 0.274 nM. Besides, the binding result in test [4] was “no binding (tested: 20 nM)”. Further, the midpoint of the response in test [5], the EC50, lay at 0.9 nM.

B4: Hu1573-3 (antibody, V domains shown)
VH: B1 VH with A49G
VL: B1 VL
notes: Humanized IgG, human gamma 1 / kappa constant regions by vectors pCP-hCg1 and pCP-hck; also called H1573VH.1B + H1573Vk.2
Consider B4, for which the dissociation constant (Kd) stood at 5.7 nM in test [1] and 14.2 nM in test [2]. The koff in test [1] was found to be 0.00818 s⁻¹; in test [2], 0.0105 s⁻¹. Moreover, the kon in test [1] came out at 1.44e+06 M⁻¹ s⁻¹; in test [2], 743000 M⁻¹ s⁻¹. Besides, the EC50 came out at 0.592 nM in test [3] and 0.872 nM in test [5]. For the same molecule, in test [4], the binding result is on record as “no binding (tested: 20 nM)”.

B5: Hu1573-1 (antibody, V domains shown)
VH: B1 VH with A49G, V81L, I99A
VL: B1 VL with M4L, G72R
notes: Humanized IgG, human gamma 1 / kappa constant regions by vectors pCP-hCg1 and pCP-hck; also called H1573VH.1 + H1573Vk.2C
For B5, the Kd in test [1] was 3.8 nM; in test [2] it was 16.7 nM; in test [6], under 5 nM. Also, the results for the koff in test [1] and in test [2] were 0.00554 s⁻¹ and 0.00402 s⁻¹, respectively. In addition, the kon in test [1] stood at 1.46e+06 M⁻¹ s⁻¹; in test [2], 240000 M⁻¹ s⁻¹. The EC50 in test [3] stood at 0.369 nM; in test [5], 0.865 nM. In test [4], the binding result is listed as “no binding (tested: 20 nM)”.

B6: Hu1573-14 (antibody, V domains shown)
VH: B1 VH
VL: B1 VL with G72R
notes: Humanized IgG, human gamma 1 / kappa constant regions by vectors pCP-hCg1 and pCP-hck; also called H1573VH.1E + H1573Vk.2B
In test [1], B6 had a Kd of 6.13 nM, a koff of 0.00856 s⁻¹ and a kon of 1.4e+06 M⁻¹ s⁻¹. For the same molecule, in test [2], the Kd is 17.6 nM, the koff worked out at 0.00524 s⁻¹ and the kon was 299000 M⁻¹ s⁻¹. The EC50 in test [3] came to 0.225 nM. In addition, the binding result in test [4] was “no binding (tested: 20 nM)”. Further, in test [5], the 50% effective concentration (EC50) amounted to 0.984 nM.

B7: Hu1573-13 (antibody, V domains shown)
VH: B1 VH
VL: B1 VL with M4L
notes: Humanized IgG, human gamma 1 / kappa constant regions by vectors pCP-hCg1 and pCP-hck; also called H1573VH.1E + H1573Vk.2A
As for B7, in test [1], the affinity, expressed as Kd, was 4.69 nM; the koff worked out at 0.00655 s⁻¹; the kon worked out at 1.4e+06 M⁻¹ s⁻¹. In test [2], this molecule registered a Kd of 15 nM, a koff of 0.00343 s⁻¹ and a kon of 229000 M⁻¹ s⁻¹. For the same molecule, the response in test [3] was half-maximal at 0.236 nM (EC50). Moreover, in test [4], the binding result is “no binding (tested: 20 nM)”. In addition, a half-maximal effect in test [5] (EC50) was put at 0.804 nM.

B8: Hu1573-17 (antibody, V domains shown)
VH: B1 VH with N79S
VL: B1 VL with G72R
notes: Humanized IgG, human gamma 1 / kappa constant regions by vectors pCP-hCg1 and pCP-hck; also called H1573VH.1F + H1573Vk.2B
In test [1], B8 returned a Kd of 5.75 nM, a koff of 0.00833 s⁻¹ and a kon of 1.45e+06 M⁻¹ s⁻¹. In test [2], this molecule displayed a Kd of 15.6 nM, a koff of 0.0042 s⁻¹ and a kon of 269000 M⁻¹ s⁻¹. In test [3], this molecule had a 50% effective concentration (EC50) of 0.627 nM. Also, the binding result in test [4] is listed as “no binding (tested: 20 nM)”. The molecule further gave an EC50 in test [5] of 1.21 nM.

B9: Hu1573-2 (antibody, V domains shown)
VH: B1 VH with A49G, V81L
VL: B1 VL with M4L, G72R
notes: Humanized IgG, human gamma 1 / kappa constant regions by vectors pCP-hCg1 and pCP-hck; also called H1573VH.1A + H1573Vk.2C
Consider B9, for which the results for the Kd in test [1], in test [2] and in test [6] were 4.61 nM, 16.4 nM and under 5 nM, respectively. In addition, the koff in test [1] was 0.00624 s⁻¹; in test [2], 0.00384 s⁻¹. The values for the kon in test [1] and in test [2] were 1.35e+06 M⁻¹ s⁻¹ and 235000 M⁻¹ s⁻¹, respectively. Moreover, the EC50 worked out at 0.265 nM in test [3] and 0.774 nM in test [5]. Besides, the binding result in test [4] is on record as “no binding (tested: 20 nM)”.

B10: Hu1573-4 (antibody, V domains shown)
VH: B1 VH with A49G
VL: B1 VL with M4L
notes: Humanized IgG, human gamma 1 / kappa constant regions by vectors pCP-hCg1 and pCP-hck; also called H1573VH.1B + H1573Vk.2A
Consider B10, for which, in test [1], the Kd was 5.1 nM, the koff was found to be 0.00772 s⁻¹ and the kon was found to be 1.52e+06 M⁻¹ s⁻¹. Moreover, in test [2], binding was put at a Kd of 14.2 nM, the koff came out at 0.0105 s⁻¹ and the kon turned out to be 743000 M⁻¹ s⁻¹. Also, the EC50 in test [3] worked out at 0.583 nM. For the same molecule, the binding result in test [4] is given as “no binding (tested: 20 nM)”. In test [5], this molecule gave an EC50 of 0.904 nM.

B11: Hu1573-15 (antibody, V domains shown)
VH: B1 VH with N79S
VL: B1 VL
notes: Humanized IgG, human gamma 1 / kappa constant regions by vectors pCP-hCg1 and pCP-hck; also called H1573VH.1F + H1573Vk.2
Regarding B11, the figures for the Kd in test [1] and in test [2] were 6.15 nM and 20.2 nM, respectively. Also, the koff turned out to be 0.00845 s⁻¹ in test [1] and 0.00452 s⁻¹ in test [2]. In addition, the kon in test [1] is 1.37e+06 M⁻¹ s⁻¹; in test [2], 225000 M⁻¹ s⁻¹. Besides, the EC50 in test [3] is 0.288 nM; in test [5], 0.889 nM. Also, the binding result in test [4] is recorded as “no binding (tested: 20 nM)”.

B12: Hu1573-11 (antibody, V domains shown)
VH: B1 VH with A49G, N79S, V81L
VL: B1 VL with G72R
notes: Humanized IgG, human gamma 1 / kappa constant regions by vectors pCP-hCg1 and pCP-hck; also called H1573VH.1D + H1573Vk.2B
In test [1], B12 yielded a dissociation constant (Kd) of 6.49 nM, a koff of 0.00896 s⁻¹ and a kon of 1.38e+06 M⁻¹ s⁻¹. Moreover, in test [2], the Kd is 15.6 nM, the koff is 0.0042 s⁻¹ and the kon worked out at 269000 M⁻¹ s⁻¹. The molecule also yielded an EC50 in test [3] of 0.687 nM. Besides, the binding result in test [4] was “no binding (tested: 20 nM)”. Also, a half-maximal effect in test [5] (EC50) was put at 1.47 nM.

B13: Hu1573-16 (antibody, V domains shown)
VH: B1 VH with N79S
VL: B1 VL with M4L
notes: Humanized IgG, human gamma 1 / kappa constant regions by vectors pCP-hCg1 and pCP-hck; also called H1573VH.1F + H1573Vk.2A
Consider B13, for which, in test [1], the Kd was determined as 4.52 nM, the koff is 0.00643 s⁻¹ and the kon came out at 1.42e+06 M⁻¹ s⁻¹. In test [2], this molecule yielded a Kd of 15.8 nM, a koff of 0.00373 s⁻¹ and an on-rate constant (kon) of 236000 M⁻¹ s⁻¹. The molecule also returned an EC50 in test [3] of 0.233 nM. Besides, the binding result in test [4] is “no binding (tested: 20 nM)”. In test [5], this molecule displayed an EC50 of 1.23 nM.

B14: Hu1573-9 (antibody, V domains shown)
VH: B1 VH with A49G, N79S, V81L
VL: B1 VL
notes: Humanized IgG, human gamma 1 / kappa constant regions by vectors pCP-hCg1 and pCP-hck; also called H1573VH.1D + H1573Vk.2
In test [1], B14 showed a Kd of 5.63 nM, a koff of 0.00815 s⁻¹ and a kon of 1.45e+06 M⁻¹ s⁻¹. Further, in test [2], the Kd came to 15.2 nM, the off-rate (koff) stood at 0.00724 s⁻¹ and the kon is 475000 M⁻¹ s⁻¹. In addition, in test [3], a half-maximal response (EC50) required 0.313 nM. In test [4], the binding result is listed as “no binding (tested: 20 nM)”. This molecule displayed an EC50 in test [5] of 0.986 nM.

B15: 1573 Chimeric (antibody, V domains shown)
VH: EVKLEESGGGLVQPGGSMKLSCVASGFTFSNYYLNWVRQSPEKGLEWVADIRLKSNNYEKHYAESVKGRFTISRDDSKSSVYLQMNNLRAEDTGIYYCIREGDYFDYWGQGTTLTVSS
VL: NIVLTQSPASLAVSLGQRATISCRASESVDSFGATFMHWYQQKPGQPPKLLIYLASNLESGVPARFSGSGSRTDFTLTIDPVEADDAATYYCQQNNEDPYTFGGGTKLEIKR
notes: IgG; also called chimera 1573; 1573VH (chimeric) + 1573Vk (chimeric)
In test [1], B15 had a Kd of 3.49 nM, a dissociation rate constant (koff) of 0.00811 s⁻¹ and a kon of 2.32e+06 M⁻¹ s⁻¹. In test [2], this molecule gave a Kd of 13.8 nM, a koff of 0.00766 s⁻¹ and a kon of 555000 M⁻¹ s⁻¹. In test [3], this molecule returned an EC50 of 0.334 nM. Moreover, the binding result in test [4] is given as “no binding (tested: 20 nM)”. This molecule showed an EC50 in test [5] of 0.83 nM.

B16: 1573 mouse (antibody, V domains shown)
VH: B15 VH
VL: B15 VL
notes: Parental murine monoclonal antibody; also called mouse aPC monoclonal antibody 1573; HAPC1573
As for B16, in test [1], the affinity, expressed as Kd, was 5.49 nM; the koff is 0.0052 s⁻¹; the kon amounted to 948000 M⁻¹ s⁻¹. In test [2], the dissociation constant (Kd) amounted to 21.1 nM, the koff was 0.00725 s⁻¹ and the kon was found to be 344000 M⁻¹ s⁻¹.
